This is an account of results in patent publication US20240262893A1.

In experiment [1] the target is SARS-CoV-2 B.1.351 ('SA', beta) variant spike protein on pseudotyped virus or live virus (SARS-CoV-2 (B.1.351)), P0DTC2. Description: cell-based or functional assay.
For experiment [2], the target named is SARS-CoV-2 B.1.1.7 ('UK', alpha) variant spike protein on pseudotyped virus or live virus (SARS-CoV-2 (B.1.1.7)). Description: cell-based or functional assay.

B1: R2D9 CDR3-knob (peptide)
peptide: ITHKTCPNGYNWFDRCCSWDGTCGDGCCSNRAWPSGNGRADSSIGETYGYEF
modifications: not checked
As to B1, in experiment [1], the pseudovirus neutralization, ng/mL (quantity not given) worked out at 22.6 ng/mL.

B2: purified R2G3 CDR3-knob (after enterokinase cleavage from trxA) (peptide)
peptide: EGDKTCPDGYEHTCGCIGGCGCKRSACIGALCCQASLGGWLSDGETYTYEF
modifications: not checked
B2 yielded a live SARS CoV-2 neutralization, ng/mL (quantity not given) in experiment [2] of 2.48 ng/mL. In addition, in experiment [1], the live SARS CoV-2 neutralization, ng/mL (quantity not given) came out at 374 ng/mL and the pseudovirus neutralization, ng/mL (quantity not given) turned out to be 66.2 ng/mL.
